According to patent US20240287169A1 (AULOS BIOSCIENCE, published 2024):

Key:
Mouse IL-2 = target: T1, Mouse IL-2 (mouse, UniProt P04351 21-169); assay: no assay described; stated in the methods of the LL/2 tumor model
T1 construct: Soluble analyte in SPR; also called mIL-2
T1 sequence (looked up): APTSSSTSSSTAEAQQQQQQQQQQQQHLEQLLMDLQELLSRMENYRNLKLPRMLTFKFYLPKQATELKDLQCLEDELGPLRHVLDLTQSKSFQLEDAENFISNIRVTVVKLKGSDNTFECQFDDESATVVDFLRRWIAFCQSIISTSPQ

Human IL-2 [1] = target: T2, Human IL-2 (human, UniProt P60568 21-153); assay: SPR, multi-cycle, antibody captured, hIL-2 analyte
T2 construct: Soluble analyte in the SPR experiments; also called hIL-2; recombinant human IL-2
T2 sequence (P60568 21-153 limits assumed): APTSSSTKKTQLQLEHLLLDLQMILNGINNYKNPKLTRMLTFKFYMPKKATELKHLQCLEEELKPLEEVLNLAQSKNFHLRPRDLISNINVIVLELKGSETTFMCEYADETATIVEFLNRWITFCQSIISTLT
Text: (§1) The SPR analysis was done on Biacore […] (GE healthcare, USA) on CM5 chips (cat:br10005-30, GE healthcare, USA). The chip was crosslinked with primary capture Ab against human IgG (Cat: br-1008-39, GE healthcare, USA) or primary capture antibody against mouse IgG (Cat: BR-1008-38, GE healthcare, USA) to a target of 8000RU. After cross-linking of the primary Ab, the mouse and human tested antibodies were immobilized on the primary Ab to a target of approximately additional 500RU. […] At the end of each cycle the analyte and tested antibody were stripped from the chip using 3M MgCl₂ and new tested Ab was loaded on the chip as described above. When indicated, instead of stripping the antibodies, kinetics was determined by injecting series of analyte concentrations in one cycle by the Single-cycle kinetics method. Binding kinetics were determined by the 1:1 Binding model using the Biacore T200 evaluation software.

Human IL-2 [2] = target: T2, Human IL-2; assay: SPR (Biacore T200), AU-007 captured on a CM5 chip, h-IL2 as analyte at 0.0625-10 nM, multi-cycle, 1:1 binding model
Description: Affinity and epitope binding site was assessed using Surface Plasmon Resonance (SPR). […] Subsequently, soluble hCD25 was injected followed by the injection of soluble hCD122. […] Diagrams represent SPR sensorgram traces of complex formation of IL-2R/Cytokine.
The chip was crosslinked with a human antibody capture kit (BR100839, GE Healthcare, USA) according to the manufacturer's protocol to target 3000-4000 RU. […] Between each cycle, all channels underwent regeneration using 3M MgCl₂. Binding kinetics were determined by the 1:1 Binding model using the Biacore […] evaluation software, version 3.1.

Human IL-2 [3] = target: T2, Human IL-2; assay: cell-based or functional assay
cynomolgus monkey IL-2 = target: T3, cynomolgus monkey IL-2 (cynomolgus monkey, UniProt Q29615 21-154); assay: SPR, multi-cycle, antibody captured, cynomolgus IL-2 analyte
T3 construct: also called cIL-2
T3 sequence (Q29615 21-154 limits assumed): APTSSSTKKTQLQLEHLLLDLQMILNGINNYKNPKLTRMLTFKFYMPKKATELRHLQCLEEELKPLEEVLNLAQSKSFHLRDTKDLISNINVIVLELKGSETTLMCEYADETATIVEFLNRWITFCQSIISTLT
Text: as §1

B1: BDG17.069 (AU-007) (antibody, human IgG1, kappa, L234A L235A, V domains shown)
VH: QVQLVQSGAEVKKPGSSVKVSCKASGYSITDDLIHWVRQAPGQGLEWMGWIDPEDGETNYAQKFQGRVTLTADTSTSTAYMELSSLRSEDTAVYYCARSLDSTWIYPFAYWGQGTLVTVSS
VL: DIVMTQSPDSLAVSLGERATINCKSSQSLLRRGNQKNHLAWYQQKPGQPPKLLIYDASTGQSGVPDRFSGSGSGTDFTLTISSLQAEDVAVYYCLQSYITPPTFGAGTKVEIKR
notes: Human IgG1-LALA
For B1, the binding result (Mouse IL-2) was “no binding”, the Kd (Human IL-2 [1]) was 0.0108 nM and the koff (Human IL-2 [1]) was 0.000487 s⁻¹. The kon (Human IL-2 [1]) was 4.5e+07 M⁻¹ s⁻¹, the Kd (Human IL-2 [2]) was 0.0108 nM and the koff (Human IL-2 [2]) was 0.000487 s⁻¹. For the same binder, the kon (Human IL-2 [2]) was 4.5e+07 M⁻¹ s⁻¹, the “IC50 (read off the curve) (%pSTAT5 in CD4+ Tregs of hPBMC stimulated with hIL-2)” value (Human IL-2 [3]) was ~1000 pM and the Kd (cynomolgus monkey IL-2) was 0.0117 nM. The koff (cynomolgus monkey IL-2) was 0.000584 s⁻¹ and the kon (cynomolgus monkey IL-2) was 4.98e+07 M⁻¹ s⁻¹.
